Laboratory results taken from US20090202499A1, “Human Telomerase Reverse Transcriptase Peptides” (priority 2006, published 2009).

Assays:
Conditions in all cases: remark: other sources report otherwise
[1] = target: HLA-B*0702 on T2-B7 cells (human); assay: MHC stabilization assay on T2-B7 cells (flow cytometry), relative to a reference peptide
[2] = target: purified HLA-B*5301 (human); assay: competition radioimmunoassay on purified HLA, radiolabeled standard peptide
[3] = target: purified HLA-B*0801 (human); assay: as above
[4] = target: purified HLA-B*3501 (human); assay: as above
[5] = target: purified HLA-B*0702 (human); assay: competition solid-phase radioimmunoassay on purified HLA-B7, radiolabeled standard peptide
[6] = target: purified HLA-B*0702 (human); assay: competition radioimmunoassay on purified HLA, radiolabeled standard peptide

Binder	RA (relative avidity) [1]	IC50 [2] [nM]	IC50 [3] [nM]	IC50 [4] [nM]	IC50 [5] [nM]	IC50 [6] [nM]
RPAEEATSL [hTRT peptide p277 (…)]	4.7					
RPSFLLSSL [hTRT peptide p342 (…)]		2200	37	1020		
DPRRLVQLL [hTRT peptide p444 (…)]			217		239	239
